Measurements published in article PMC4234289, “The LexA regulated genes of the Clostridium difficile” (BMC Microbiology, 2014).

Target: T1, C. difficile RecA, activated (RecA*) (Clostridium difficile 630, UniProt Q18BJ4 1-348)
T1 construct: Protein RecA (recombinase A) of Clostridium difficile strain 630; also called RecA* (CD); source: E. coli BL21 (DE3), purified (Ni-NTA, PD10 desalting)
T1 sequence (looked up): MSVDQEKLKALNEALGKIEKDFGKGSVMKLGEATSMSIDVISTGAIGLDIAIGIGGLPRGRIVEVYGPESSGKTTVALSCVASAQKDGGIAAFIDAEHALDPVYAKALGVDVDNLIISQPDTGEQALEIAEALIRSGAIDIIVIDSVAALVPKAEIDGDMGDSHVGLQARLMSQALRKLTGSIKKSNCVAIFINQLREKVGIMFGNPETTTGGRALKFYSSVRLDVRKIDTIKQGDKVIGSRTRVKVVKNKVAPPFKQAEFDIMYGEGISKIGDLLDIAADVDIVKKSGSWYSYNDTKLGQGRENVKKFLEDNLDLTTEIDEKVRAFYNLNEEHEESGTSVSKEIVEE
Test: SPR; Biacore X, 25°C; RecA* immobilised on the chip (~2000 response units); LexA (2.6 μM) incubated with non-specific 22-bp DNA (recA operator with six nucleotides changed, 1.4-8.1 μM) passed over at 10 μl/min for 60 s; 20 mM NaH2PO4 pH 7.4, 150 mM NaCl, 2 mM MgCl2, 1 mM DTT, 1 mM ATP, 0.005% P20
Settings: both partners purified

B1: C. difficile LexA repressor (natural protein, Clostridium difficile 630, UniProt Q187P1 1-211, looked up)
chain: MYLDLTEKQVLILEFIKSQIILKGYPPAVREICTAVGLRSTSTVHSHLNKLEKLGYIRKDPTKPRAIEVLERSKVNDVSGANQEIIELPLVGQITAGEPILAQQNIEEYIPFPASLVKGSNNFVLRVKGESMINAGILDEDYVVVDKKNTALNSQIVVALINGESATVKRFFKEGNLIRLQPENDFMEPIMLNDSEVEIVGIVTGVFRVIK
notes: LexA repressor of Clostridium difficile strain 630; In the SPR with RecA* LexA was pre-incubated with 22-bp DNA; also called LexA (CD); DinR; source: E. coli BL21 (DE3), purified (Ni-NTA, PD10 desalting)
  binding result: binds
